In the supplement of paper PMC6757056:
± gives the standard deviation of the averaged measurements.

B1: library; a variant is named by its letters at N, in order (parent)
chain: GCUGUCACCGAGAAACUGUGAAGUAUAUCUUAAACCUGGGCACUUAAAAGAUAUAUGGAGUUAGUAGUGCAACCUGCUCGGUCUGAUGAGUCCNNNNNNGGACGAAACAGC

Legend:
[1] = variants of: B1; assay: normalized RNA/DNA level without ligand (relative to sTRSVctl = 100) (log10 (% of sTRSVctl)); HEK293T; ligand: cyclic di-GMP (c-di-GMP-II aptamer); higher = less ribozyme self-cleavage, higher mRNA level; settings: reporter: mCherry (pCS4076), ligand present: no
In short: (§1)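 Library plasmids carrying ribozyme switches linked to mCherry, or to eGFP in some ligand experiments, were transfected into HEK293T at 4 µg per 6-well well, with any ligand added 1 h earlier. Seventy-two hours on, total RNA was extracted with EDTA and reverse-transcribed, amplified, barcoded and sequenced. RNA level was RNA over DNA reads normalized to a spiked-in non-cleaving sequence or to the top sequences, then scaled and log-transformed. The top set was 25 sequences, the transform was ×100 and log10, and sequences needed ≥100 DNA reads.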

[2] = variants of: B1; assay: normalized RNA/DNA level with ligand (relative to sTRSVctl = 100) (log10 (% of sTRSVctl)); HEK293T; ligand: cyclic di-GMP (c-di-GMP-II aptamer); ligand concentration (+) RNA-Seq: 1 mM; higher = less ribozyme self-cleavage, higher mRNA level; settings: reporter: mCherry (pCS4076), ligand present: yes
In short: as §1

Variant | normalized RNA/DNA level without ligand (log10) [1] | normalized RNA/DNA level with ligand (log10) [2]
CUUAUG | 1.67 ± 0.022 | 1.81 ± 0.1
CUUAUC | 1.73 ± 0.088 | 1.87 ± 0.14
CUUAUU | 1.54 ± 0.023 | 1.71 ± 0.065
GUUAUC | 1.51 ± 0.045 | 1.74 ± 0.067
GUUAUU | 1.679 ± 0.0041 | 1.83 ± 0.11
UUUCCA | 1.78 ± 0.028 | 1.9 ± 0.13
UUUCCG | 1.8104 ± 0.0015 | 1.92 ± 0.056
UUUCCC | 1.83 ± 0.07 | 1.94 ± 0.13
UUUCCU | 1.812 ± 0.016 | 1.92 ± 0.1
GUGGUU | 1.617 ± 0.0057 | 1.78 ± 0.13
AUGUUG | 1.56 ± 0.036 | 1.72 ± 0.14
AUGUUC | 1.681 ± 0.01 | 1.84 ± 0.1
AUGUUU | 1.56 ± 0.034 | 1.77 ± 0.15
UUGUGG | 1.795 ± 0.0063 | 1.9 ± 0.1
UUGUGU | 1.716 ± 0.015 | 1.88 ± 0.11
UUGUGC | 1.75 ± 0.027 | 1.86 ± 0.052
UUGUGA | 1.599 ± 0.011 | 1.79 ± 0.11
UUUGGG | 1.735 ± 0.0076 | 1.85 ± 0.074
UUUGGU | 1.73 ± 0.043 | 1.88 ± 0.066
UUUGGA | 1.65 ± 0.051 | 1.79 ± 0.085
UUUGGC | 1.79 ± 0.033 | 1.9 ± 0.16
CUUGUA | 1.57 ± 0.044 | 1.77 ± 0.12
CUUGUC | 1.78 ± 0.048 | 1.89 ± 0.12

Variant | normalized RNA/DNA level without ligand (log10) [1] | normalized RNA/DNA level with ligand (log10) [2]
AUGUCA | 1.59 ± 0.072 | 1.78 ± 0.066
AUGUCU | 1.7 ± 0.028 | 1.84 ± 0.046
AUGUCC | 1.74 ± 0.02 | 1.86 ± 0.15
AUGUCG | 1.64 ± 0.035 | 1.76 ± 0.087
UUUACG | 1.83 ± 0.057 | 1.91 ± 0.12
UUUACC | 1.75 ± 0.028 | 1.87 ± 0.058
UUUACA | 1.73 ± 0.037 | 1.85 ± 0.1
UUUACU | 1.75 ± 0.031 | 1.88 ± 0.092
AUUCUA | 1.595 ± 0.0027 | 1.78 ± 0.13
AUUCUC | 1.806 ± 0.0079 | 1.89 ± 0.1
AUUCUG | 1.68 ± 0.071 | 1.81 ± 0.11
AUUCUU | 1.72 ± 0.052 | 1.88 ± 0.11
UUGUUA | 1.64 ± 0.022 | 1.81 ± 0.12
UUGUUG | 1.67 ± 0.053 | 1.86 ± 0.13
UUGUUU | 1.78 ± 0.041 | 1.92 ± 0.085
CUGUGA | 1.54 ± 0.075 | 1.77 ± 0.081
CUGUGU | 1.75 ± 0.027 | 1.86 ± 0.11
CUGUGG | 1.7 ± 0.048 | 1.85 ± 0.11
CUGUGC | 1.739 ± 0.013 | 1.85 ± 0.095
CUUGCG | 1.78 ± 0.02 | 1.86 ± 0.12
CUUGCC | 1.82 ± 0.019 | 1.9 ± 0.077
CUUGCU | 1.76 ± 0.021 | 1.86 ± 0.12
CUUGCA | 1.66 ± 0.018 | 1.77 ± 0.1

Variant | normalized RNA/DNA level without ligand (log10) [1] | normalized RNA/DNA level with ligand (log10) [2]
AUGGGA | 1.4 ± 0.12 | 1.56 ± 0.074
AUGGGG | 1.56 ± 0.12 | 1.68 ± 0.08
AUGGGC | 1.626 ± 0.015 | 1.79 ± 0.16
UUGGCA | 1.76 ± 0.035 | 1.83 ± 0.037
UUGGCG | 1.85 ± 0.022 | 1.94 ± 0.11
UUGGCC | 1.81 ± 0.031 | 1.88 ± 0.097
CUUAAC | 1.679 ± 0.014 | 1.8 ± 0.079
CUUAAG | 1.69 ± 0.05 | 1.89 ± 0.079
CUUCAG | 1.732 ± 0.0075 | 1.81 ± 0.067
CUUCAC | 1.734 ± 0.0076 | 1.86 ± 0.088
GUGUCA | 1.75 ± 0.027 | 1.85 ± 0.11
GUGUCC | 1.77 ± 0.045 | 1.86 ± 0.094
GUGUCU | 1.72 ± 0.031 | 1.84 ± 0.13
GUGUCG | 1.685 ± 0.012 | 1.79 ± 0.11
AUUAAG | 1.55 ± 0.041 | 1.75 ± 0.14
AUUAAU | 1.674 ± 0.015 | 1.8 ± 0.12
AUUAAC | 1.655 ± 0.015 | 1.76 ± 0.15
GUUCAC | 1.737 ± 0.013 | 1.87 ± 0.09
GUUCAA | 1.62 ± 0.059 | 1.81 ± 0.083
GUUCAG | 1.77 ± 0.023 | 1.86 ± 0.12
GUGUGU | 1.595 ± 0.003 | 1.77 ± 0.12
GUGUGG | 1.74 ± 0.041 | 1.86 ± 0.11
GUGUGA | 1.41 ± 0.11 | 1.67 ± 0.084

Variant | normalized RNA/DNA level without ligand (log10) [1] | normalized RNA/DNA level with ligand (log10) [2]
UUUGUC | 1.795 ± 0.011 | 1.9 ± 0.11
CUGUCG | 1.73 ± 0.047 | 1.84 ± 0.14
CUGUCC | 1.786 ± 0.0046 | 1.92 ± 0.12
CUGUCU | 1.57 ± 0.086 | 1.76 ± 0.067
GUUACA | 1.661 ± 0.0095 | 1.8 ± 0.11
GUUACC | 1.79 ± 0.059 | 1.9 ± 0.1
GUUACG | 1.65 ± 0.075 | 1.81 ± 0.083
CUUCGU | 1.8 ± 0.04 | 1.87 ± 0.094
CUUCGC | 1.79 ± 0.024 | 1.83 ± 0.056
CUUCGA | 1.71 ± 0.026 | 1.84 ± 0.065
CUUCGG | 1.82 ± 0.028 | 1.886 ± 0.0058
GUUCGC | 1.83 ± 0.062 | 1.92 ± 0.073
GUUCGG | 1.71 ± 0.018 | 1.84 ± 0.12
CUGGGG | 1.648 ± 0.0018 | 1.83 ± 0.19
CUGGGU | 1.71 ± 0.033 | 1.85 ± 0.13
CUGGGC | 1.733 ± 0.0023 | 1.88 ± 0.09
CUGGGA | 1.55 ± 0.09 | 1.74 ± 0.093
AUGUAA | 1.54 ± 0.078 | 1.68 ± 0.14
AUGUAG | 1.59 ± 0.017 | 1.77 ± 0.11
UUUAAG | 1.72 ± 0.027 | 1.85 ± 0.11
UUUAAA | 1.654 ± 0.0051 | 1.79 ± 0.081
GUGGAG | 1.61 ± 0.059 | 1.71 ± 0.092
AUUGUC | 1.73 ± 0.053 | 1.85 ± 0.15

Variant | normalized RNA/DNA level without ligand (log10) [1] | normalized RNA/DNA level with ligand (log10) [2]
AUUGUG | 1.605 ± 0.014 | 1.84 ± 0.11
GUUAGC | 1.72 ± 0.02 | 1.85 ± 0.12
GUUAGU | 1.66 ± 0.017 | 1.8 ± 0.13
CUGGAU | 1.53 ± 0.094 | 1.73 ± 0.053
AUUGGG | 1.54 ± 0.16 | 1.75 ± 0.078
AUUGGC | 1.67 ± 0.017 | 1.83 ± 0.076
CUUACG | 1.82 ± 0.085 | 1.87 ± 0.19
CUUACU | 1.59 ± 0.079 | 1.79 ± 0.048
CUUACC | 1.77 ± 0.049 | 1.86 ± 0.15
CUUCCU | 1.64 ± 0.025 | 1.8 ± 0.084
CUUCCA | 1.61 ± 0.089 | 1.78 ± 0.085
CUUCCC | 1.8 ± 0.024 | 1.88 ± 0.14
CUUCCG | 1.761 ± 0.017 | 1.89 ± 0.1
AUUACC | 1.73 ± 0.057 | 1.88 ± 0.052
AUUACA | 1.63 ± 0.027 | 1.79 ± 0.071
AUUACU | 1.73 ± 0.029 | 1.86 ± 0.081
GUGUAU | 1.6 ± 0.018 | 1.78 ± 0.14
GUGUAC | 1.58 ± 0.025 | 1.78 ± 0.089
GUGUAA | 1.48 ± 0.027 | 1.67 ± 0.1
GUGUAG | 1.7031 ± 0.0011 | 1.85 ± 0.095
GUUCUU | 1.7 ± 0.084 | 1.84 ± 0.12
GUUCUC | 1.75 ± 0.035 | 1.88 ± 0.068
CUUGAG | 1.68 ± 0.017 | 1.79 ± 0.09
